Laboratory results as given in article PMC7714071, “Interaction of amyloid beta with humanin and acetylcholinesterase is modulated by ATP” (FEBS Open Bio, 2020).

System: AChE-Aβ complex (H1299 cell-conditioned media)
Assay: ELISA, AChE found in a complex with Aβ in H1299 cell-conditioned media
Assay type: binding, human
Settings: Fig. 5C,D
Protocol: Human NSCLC cell lines, A549 (ATCC CCL‐185) and H1299 (ATCC CRL‐5803), were purchased from the American Type Culture Collection (ATCC, Manassas, VA, USA). Cells were seeded as we reported earlier in 5 mL HyClone Dulbecco's modified Eagle's medium/nutrient mixture F‐12 (DMEM/F12) (GE Healthcare Life Sciences, Pittsburgh, PA, USA), supplemented with 10% Fetalgro bovine growth serum (FBS; RMBIO, Missoula, MT, USA), 50 U·mL^−1 penicillin, and […] streptomycin (Invitrogen, Life Technologies, Carlsbad, CA, USA) in 25‐cm^2 tissue culture flasks, and allowed to grow overnight in an incubator at 37 °C, 95% humidity, and 5% CO2. The cells were counted after trypan blue staining, with a hemocytometer.
ELISAs were carried out as we previously reported. […] TBST was then used to wash the wells 4× before proceeding in one of two ways: (a) biotinylated samples were analyzed by adding 100 µL streptavidin–HRP conjugate in TBST (1 : 2500 dilution) to the samples followed by incubation for 3 h at RT on a shaker, or (b) samples without biotin were analyzed by adding 100 µL TBST containing the primary antibody as per the manufacturer's recommendation, incubating for 3 h at RT on a shaker, followed by washing the wells 4× with TBST. […] The reaction was stopped with 100 µL 2 M H2SO4 after incubating at RT for 0.5–15 min, resulting in a yellow color change, measured by absorbance at 450 nm. […]

B1: acetylcholinesterase (protein)
chain: EGREDAELLVTVRGGRLRGIRLKTPGGPVSAFLGIPFAEPPMGPRRFLPPEPKQPWSGVVDATTFQSVCYQYVDTLYPGFEGTEMWNPNRELSEDCLYLNVWTPYPRPTSPTPVLVWIYGGGFYSGASSLDVYDGRFLVQAERTVLVSMNYRVGAFGFLALPGSREAPGNVGLLDQRLALQWVQENVAAFGGDPTSVTLFGESAGAASVGMHLLSPPSRGLFHRAVLQSGAPNGPWATVGMGEARRRATQLAHLVGCPPGGTGGNDTELVACLRTRPAQVLVNHEWHVLPQESVFRFSFVPVVDGDFLSDTPEALINAGDFHGLQVLVGVVKDEGSYFLVYGAPGFSKDNESLISRAEFLAGVRVGVPQVSDLAAEAVVLHYTDWLHPEDPARLREALSDVVGDHNVVCPVAQLAGRLAAQGARVYAYVFEHRASTLSWPLWMGVPHGYEIEFIFGIPLDPSRNYTAEEKIFAQRLMRYWANFARTGDPNEPRDPKAPQWPPYTAGAQQYVSLDLRPLEVRRGLRAQACAFWNRFLPKLLSATDTLDEAERQWKAEFHRWSSYMVHWKNQFDHYSKQDRCSDL
AChE detected in complex with Aβ: No AChE was detected above background
